Measured values: PMC6405639

Experiments:
[1] = molecular target: Y2R_cysteine_deficient_eYFP (in HEK293 cells) (human) (UniProt P49146)
[2] = molecular target: Y2R_cysteine_deficient_eYFP (in HEK293 cells) (human) (UniProt P49146); remark: listed apart in the source
[3] = molecular target: Y2R_cysteine_deficient_eYFP (in HEK293 cells) (human) (UniProt P49146); experiment: radioligand binding; displacement of 60 pM [125I]-PYY from membrane preparations (0.75 μg protein) of transiently transfected HEK293 cells; HBSS with 1% BSA, room temperature, 3 h; filtration

Chain of Y2R_cysteine_deficient_eYFP (in HEK293 cells) (human) (P49146 other isoform, or with tags, fused parts or gaps): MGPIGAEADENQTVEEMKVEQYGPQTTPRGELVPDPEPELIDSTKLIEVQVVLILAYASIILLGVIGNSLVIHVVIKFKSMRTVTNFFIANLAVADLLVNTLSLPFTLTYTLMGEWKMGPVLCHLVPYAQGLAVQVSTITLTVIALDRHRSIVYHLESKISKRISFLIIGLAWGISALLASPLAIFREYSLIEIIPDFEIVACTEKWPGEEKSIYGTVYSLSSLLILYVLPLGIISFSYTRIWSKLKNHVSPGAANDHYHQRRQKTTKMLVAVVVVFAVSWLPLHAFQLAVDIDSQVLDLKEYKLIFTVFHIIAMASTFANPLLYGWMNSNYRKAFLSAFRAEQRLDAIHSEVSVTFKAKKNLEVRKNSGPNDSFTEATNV

Substance: 5(6)-TAMRA-Ahx(5-24)NPY (peptide)
- potency in the IP-one accumulation assay [1]: 3.6 nM
- EC50 of IP-one accumulation in HEK293 cells co-transfected with the receptor and the chimeric G protein GαΔ6qi4myr [2]: 3.4 nM
- Emax of IP-one accumulation, normalised to the Y2R/NPY curve [2]: 95%
- IC50 [3]: 39 nM
- Ki [3]: 11.2 nM

Substance: [K^22[(Ahx)2-biotin]Bpa^27]NPY (peptide)
- EC50 of IP-one accumulation in HEK293 cells co-transfected with the receptor and the chimeric G protein GαΔ6qi4myr [2]: 4 nM
- Emax of IP-one accumulation, normalised to the Y2R/NPY curve [2]: 102%
